Consider 2 molecules from US20150307627A1 (BAC IP B V, published 2015).

One assay has as its target T1, HuIgG3 (human, UniProt P01860-1 1-377).
T1 construct: Purified human IgG of subclass 3; also called Human-IgG3
The experiment in a line: SPR, VHH immobilised, 1:1 Langmuir fit. Here is the method:
(§1) Binding affinity constants of anti IgG-Fc VHH fragments were determined using surface plasmon resonance analysis (SPR) on a BiaCore 3000. For this purpose, purified VHH fragments were immobilised onto the surface of a CM5 sensor chip and subsequently incubated with different concentrations of purified IgG antibodies in HBS-EP buffer. Binding was allowed for 3 minutes at 30 μl/min followed by a dissociation step of 15 minutes at 30 μl/min Binding curves were fitted according to a 1:1 Langmuir binding model using Biacore software.

In another assay the target is T2, HuIgG2 (human, UniProt P01859-1 1-326 = IgG part).
T2 construct: Purified human IgG of subclass 2; also called Human-IgG2
The experiment in a line: SPR, VHH immobilised, 1:1 Langmuir fit. The procedure:
as §1
In general terms: SPR reads the build-up and loss of mass on a sensor chip optically.

The next assay addresses T3, HuIgG1 (human, UniProt P01857-1 1-330 = IgG part).
T3 construct: Purified human IgG of subclass 1; also called Human-IgG1
Kind of assay: SPR, VHH immobilised, 1:1 Langmuir fit. The procedure: as §1

The target of a further assay is T4, HuIgG4 (human, UniProt P01861-1 1-327 = IgG part).
T4 construct: Purified human IgG of subclass 4; also called Human-IgG4
The experiment in a line: SPR, VHH immobilised, 1:1 Langmuir fit. The procedure:
as §1

For assay [1], the target named is T5, Human IgG.
T5 construct: also called HuIgG; human IgG-Fc domains
Kind of assay: SPR, VHH immobilised, 1:1 Langmuir fit. The procedure: as §1

Assay [2] has as its target T5, Human IgG. The experiment in a line: affinity chromatography, VHH on NHS-Sepharose, 150 cm/h. Here is the method:
The dynamic binding capacity (DBC) of the IgG-Fc domain binding VHH fragments immobilized onto NHS sepharose was tested. 10 ml of 1.0 mg/ml human IgG in PBS pH 7.4 was loaded on a 400 μl column with a linear flow of 150 cm/h. After the washing with 10 column volumes PBS pH 7.4, the column was eluted with 0.1 M glycine buffer pH 3.0. Based on integration of the OD280 signal of the flow through and elution peak, the dynamic binding capacity of the column was calculated (Table 11).

Assay [3] deals with T5, Human IgG. Kind of assay: method not given. The procedure:
as §1

T1 sequence (P01860 other isoform, or with tags, fused parts or gaps): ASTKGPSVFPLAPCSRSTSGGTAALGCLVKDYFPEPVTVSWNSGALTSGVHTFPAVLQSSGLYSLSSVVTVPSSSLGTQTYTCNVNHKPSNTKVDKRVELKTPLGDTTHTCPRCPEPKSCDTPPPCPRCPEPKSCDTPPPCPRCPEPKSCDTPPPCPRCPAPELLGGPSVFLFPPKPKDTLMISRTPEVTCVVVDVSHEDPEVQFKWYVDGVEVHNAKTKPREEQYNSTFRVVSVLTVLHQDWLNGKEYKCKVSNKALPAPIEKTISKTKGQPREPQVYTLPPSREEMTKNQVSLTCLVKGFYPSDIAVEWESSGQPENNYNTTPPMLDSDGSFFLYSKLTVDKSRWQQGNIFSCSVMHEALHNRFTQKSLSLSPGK
T3 sequence (P01857 other isoform, or with tags, fused parts or gaps): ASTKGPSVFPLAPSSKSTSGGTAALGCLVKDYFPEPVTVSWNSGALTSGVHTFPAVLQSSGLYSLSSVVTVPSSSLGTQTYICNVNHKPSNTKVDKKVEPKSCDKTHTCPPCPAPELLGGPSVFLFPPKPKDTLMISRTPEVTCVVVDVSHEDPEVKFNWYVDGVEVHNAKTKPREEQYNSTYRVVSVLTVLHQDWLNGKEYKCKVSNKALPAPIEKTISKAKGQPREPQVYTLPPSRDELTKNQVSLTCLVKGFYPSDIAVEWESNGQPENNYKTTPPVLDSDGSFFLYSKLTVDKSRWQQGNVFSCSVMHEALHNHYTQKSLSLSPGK
T4 sequence (P01861 other isoform, or with tags, fused parts or gaps): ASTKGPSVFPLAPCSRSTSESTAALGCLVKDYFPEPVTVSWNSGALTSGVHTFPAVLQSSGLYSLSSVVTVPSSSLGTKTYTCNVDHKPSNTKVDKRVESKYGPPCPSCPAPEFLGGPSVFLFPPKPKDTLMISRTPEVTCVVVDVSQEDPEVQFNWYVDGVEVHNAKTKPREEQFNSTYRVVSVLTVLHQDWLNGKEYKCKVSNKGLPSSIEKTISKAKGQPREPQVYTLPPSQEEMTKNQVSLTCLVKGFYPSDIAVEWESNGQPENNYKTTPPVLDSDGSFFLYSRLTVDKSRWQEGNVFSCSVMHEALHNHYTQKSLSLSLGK
T2 sequence (P01859 other isoform, or with tags, fused parts or gaps): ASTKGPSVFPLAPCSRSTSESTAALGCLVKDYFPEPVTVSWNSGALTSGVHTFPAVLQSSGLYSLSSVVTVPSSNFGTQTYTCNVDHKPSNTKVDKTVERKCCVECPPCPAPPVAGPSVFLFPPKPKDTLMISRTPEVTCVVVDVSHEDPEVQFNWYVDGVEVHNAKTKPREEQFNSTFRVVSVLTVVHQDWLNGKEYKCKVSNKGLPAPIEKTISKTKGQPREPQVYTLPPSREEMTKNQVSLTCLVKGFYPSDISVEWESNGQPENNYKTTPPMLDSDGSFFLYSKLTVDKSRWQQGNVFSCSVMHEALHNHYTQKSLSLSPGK

B1: IgG-Fc-01 (VHH)
VHH: QVQLQESGGGLVQPGGSLRLSCAASGGTSIRIGSINALAWYRQALGNQRELVAAVTEGGSTNYADFVKGRFTISRDNAQNMMYLQMNSLKPEDTAVYYCNADKVLYSRGGYYSVANDLWGQGTQVTVSS
notes: also called IgG-Fc-1
As for B1, the Ka came out at 2.09e+07 M⁻¹ with HuIgG3; 5.76e+08 M⁻¹ in the assay with HuIgG2; 1.74e+09 M⁻¹ in the assay with HuIgG1; 3.32e+09 M⁻¹ with HuIgG4; 4.67e+08 M⁻¹ in the assay with Human IgG [1]. Besides, the equilibrium dissociation constant (Kd) – broadly, a measure of binding affinity in units of concentration – in the assay with HuIgG3 turned out to be 47.8 nM; in the assay with HuIgG2, 1.73 nM; with HuIgG1, 0.575 nM; with HuIgG4 it was 0.302 nM; in the assay with Human IgG [1], 2.14 nM. Further, the off-rate constant (koff) (in general, the first-order rate constant of dissociation) with HuIgG3 amounted to 0.000272 s⁻¹; with HuIgG2 it was 0.000212 s⁻¹; in the assay with HuIgG1, 0.000208 s⁻¹; with HuIgG4, 5.91e-05 s⁻¹; with Human IgG [1], 0.000176 s⁻¹. The kon (usually the second-order rate constant of association) turned out to be 5690 M⁻¹ s⁻¹ in the assay with HuIgG3; 122000 M⁻¹ s⁻¹ with HuIgG2; 361000 M⁻¹ s⁻¹ with HuIgG1; 196000 M⁻¹ s⁻¹ with HuIgG4; 82400 M⁻¹ s⁻¹ with Human IgG [1]. In the assay with Human IgG [2], the Dynamic binding capacity turned out to be 18.2 mg human IgG/ml matrix.

B2: IgG-Fc-10 (VHH)
VHH: QVQLQESGGGLVQAGDSLRISCRASGLTVNDLYMGWFRQAPGKEREFVGRVTPGDNTDYTYYVDSVKGRFTISRDSAKNTVYLQMNSLKLEDTAVYLCAGRRFGSSEWDYWGQGTQVTVSS
In the case of B2, the Ka is 1.11e+08 M⁻¹ with HuIgG3; 1.37e+08 M⁻¹ with HuIgG2; 3.81e+08 M⁻¹ with HuIgG1; 8.16e+07 M⁻¹ in the assay with HuIgG4; 3.07e+08 M⁻¹ in the assay with Human IgG [1]; ≥ 4e+09 M⁻¹ with Human IgG [3]. Besides, the Kd was 8.99 nM with HuIgG3; 7.29 nM with HuIgG2; 2.62 nM with HuIgG1; 12.3 nM with HuIgG4; 3.25 nM in the assay with Human IgG [1]. The koff stood at 0.0014 s⁻¹ with HuIgG3; 0.000889 s⁻¹ with HuIgG2; 0.000654 s⁻¹ in the assay with HuIgG1; 0.00123 s⁻¹ in the assay with HuIgG4; 0.00129 s⁻¹ in the assay with Human IgG [1]. In addition, the kon was 156000 M⁻¹ s⁻¹ with HuIgG3; 122000 M⁻¹ s⁻¹ with HuIgG2; 249000 M⁻¹ s⁻¹ with HuIgG1; 100000 M⁻¹ s⁻¹ with HuIgG4; 396000 M⁻¹ s⁻¹ with Human IgG [1]. Besides, the Dynamic binding capacity with Human IgG [2] amounted to 16.7 mg human IgG/ml matrix.
